Data reported in article PMC9141747.

Key:
[1] = molecular target: T1, H-NS (Escherichia coli K1 (RS218?)) (UniProt P0ACF8); test: EMSA; conditions: 10 mM Tris pH 7.5, 1 mM EDTA, 100 mM KCl, 0.1 mM DTT, 5% glycerol, 0.01 mg/mL BSA
T1 sequence: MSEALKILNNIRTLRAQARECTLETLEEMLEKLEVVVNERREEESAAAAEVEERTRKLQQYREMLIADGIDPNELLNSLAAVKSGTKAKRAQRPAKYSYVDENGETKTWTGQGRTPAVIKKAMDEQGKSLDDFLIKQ

[2] = system: T2, YbdO (Escherichia coli K1 (RS218?)), ORF:f8d494c4; test: EMSA; conditions: 10 mM Tris pH 7.5, 1 mM EDTA, 100 mM KCl, 0.1 mM DTT, 5% glycerol, 0.01 mg/mL BSA; […]
T2 sequence: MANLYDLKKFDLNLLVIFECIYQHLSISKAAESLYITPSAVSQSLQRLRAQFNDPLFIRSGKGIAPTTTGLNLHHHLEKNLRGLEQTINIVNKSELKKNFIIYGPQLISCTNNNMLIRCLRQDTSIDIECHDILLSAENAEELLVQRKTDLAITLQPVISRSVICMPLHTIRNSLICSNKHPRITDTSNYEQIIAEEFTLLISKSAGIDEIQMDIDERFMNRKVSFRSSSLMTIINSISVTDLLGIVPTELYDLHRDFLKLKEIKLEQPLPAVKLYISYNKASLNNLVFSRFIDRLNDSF

Row | Sequence | binding ([1]; […]) | binding ([1]; 20 ng DNA in 20 uL, 25 C, 30 min, native 8% PAGE in 0.5x TBE, GelRed stain) | binding [2]
1 | ACATACTCCGTTGTATTGTCTCTTCCATAAATCATTCACTTGATCAATAATGTTGTTGTATTTATATGTATTATGTTTTTCTGCTTAACTTTGGATTAAGATTTTCTAAAATAGCATAGCTGTCAGGTGGGTTACGAGCAATTCATGCGTTTTTAGGATGGTTGAAAAGCAGAGAGAGATTTCAACCATCGATGAATTATATTCTATTTATTCCCCATAATGATATTAAGTGTTTTCTGATCGGGTAATCCGACGGCTTGTTGCAGGGTA (double strand) [PybdO] | binds | – | –
2 | GCGGCCCCAGGCCGAGCCAGTTTACCCGCTCTGAGACCTGCGCCAGCTGGCAGGTCAGGCCAATCCGCGCCGGATGCGGTGTATCGCTTGCCACCGCAACATCCACATTGATGACCATCTCACCGTGCCCATCAATCCGGTAGG (double strand) [lacZ fragment] | – | no binding | no binding
3 | TTTCCTGAGAAATTAACTCTGCATTCTAAAACGGCCAGTTTTCTGAAATTACCAGAAGACCGAATACATTCATGCCTGAAGAATGGATTAGAAGAAACGAGACGGAAATAGATCTATTTATCCCTGCGGAAATAATTTCTGCTGAAATTTTTTTGCGGCTATTAAAAAGGTCAAACCGTCTGAGTAAATTTTATCCAGTTACAAACAAGTATTACCTCCAGTGTATTGGTAGCTGTTAAGCCAAGGGCGGTAGCGTACCTGAAGAGATTAGGATCACATCATCAAATGG (double strand) [PkpsM] | – | – | binds
